Common to all, as to assay: SPR
Background: Surface plasmon resonance follows binding to a sensor surface in real time, without labels.

The target of data set [1] is Protein A, native (Staphylococcus aureus) (UniProt P38507). As to conditions: aptamer immobilized; 100 mM NaCl, 20 mM Tris-HCl pH 7.6, 10 mM MgCl2, 5 mM KCl, 1 mM CaCl2, 0.005% surfactant P20, 21 °C (SPR Biacore X100).
A further data set addresses Protein A, recombinant (UniProt P38507). As to conditions: aptamer immobilized; 100 mM NaCl, 20 mM Tris-HCl pH 7.6, 10 mM MgCl2, 5 mM KCl, 1 mM CaCl2, 0.005% surfactant P20, 21 °C (SPR Biacore X100).
The target of data set [2] is Protein A, native, biotinylated (Staphylococcus aureus) (UniProt P38507). As to conditions: protein immobilized, aptamer as analyte; 100 mM NaCl, 20 mM Tris-HCl pH 7.6, 10 mM MgCl2, 5 mM KCl, 1 mM CaCl2, 0.005% surfactant P20, 21 °C (SPR Biacore X100).

As for “ATACCAGCTTATTCAATTAGCAACATGAGGGGGATAGAGGGGGTGGGTTCTCTCGGCTACAATCGTAATCAGTTAG [PA#2/8 (3'-biotin)]”, the Kd (commonly the equilibrium constant for the complex coming apart) is 20 nM in data set [1] and 92 nM with Protein A, recombinant. Regarding “ATACCAGCTTATTCAATTAGCAACATGAGGGGGATAGAGGGGGTGGGTTCTCTCGGCTACAATCGTAATCAGTTAG [PA#2/8 (unmodified)]”, the Kd in data set [2] was 3.73 µM. Consider “ATACCAGCTTATTCAATTAGCAACATGAGGGGGATGGAGGGGGTGGGTTCTCTCGGCTACAATCGTAATCAGTTAG [PA-C4]”, for which the Kd with Protein A, recombinant worked out at 222 nM. Turning to “ATACCAGCTTATTCAATTAGCAACATGAGGGGGGATAGAGGGGGTGGGTTCTCTCGGCTACAATCGTAATCAGTTAG [PA-C7]”, the Kd with Protein A, recombinant was found to be 1610 nM. As to “ATACCAGCTTATTCAATTAGGCCAGATGAGGGGTGCCCATGGCGGGGTGGCTGCTCCAACAATCGTAATCAGTTAG [PA-C8 (3'-biotin)]”, the Kd stood at 99 nM in data set [1] and 443 nM with Protein A, recombinant. Take “ATACCAGCTTATTCAATTGCGCACCACGGGAGTTGGCCACATTTGGAGTTGTTTTTGCACAATCGTAATCAGTTAG [PA-C10 (3'-biotin)]”: the Kd was found to be 588 nM in data set [1] and 2730 nM with Protein A, recombinant.

For “ATACCAGCTTATTCAATTGGGCACCACGGGAGTCGGCCACATTTGGAGTTGTTTTTGCACAATCGTAATCAGTTAG [PA#14/89 (3'-biotin)]”, the Kd came out at 467 nM in data set [1] and 2660 nM with Protein A, recombinant.

Source of the values: publication PMC5855864.
